From patent publication US20150158933A1

Target: natural VIF protein on the surface of T1 human cells infected with HIV-1 strain IIIB (HIV-1 strain IIIB) (UniProt P69723)
Test: flow cytometry on HIV-1 IIIB infected T1 cells, 1:100

Chain of UniProt P69723 (P69723 whole entry): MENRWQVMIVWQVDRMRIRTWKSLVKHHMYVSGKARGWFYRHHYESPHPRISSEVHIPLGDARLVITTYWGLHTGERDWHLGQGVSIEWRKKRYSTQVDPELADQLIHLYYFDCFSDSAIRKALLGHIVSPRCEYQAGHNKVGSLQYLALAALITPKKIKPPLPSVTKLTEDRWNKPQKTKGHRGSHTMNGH

Isotype control (antibody)
MFI: 971
